The source of these data is the supplement of paper PMC10567573.

± gives the standard deviation.

A short description of the data set: protein stability index of a GFP-peptide fusion (GPS, HEK-293T) (PSI 1-6); higher = more stable. As to conditions: c terminus: a fixed tail appended.
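Further: 24-mer peptide tiles fused after GFP, lentivirally expressed, FACS-sorted into six equal bins by GFP/DsRed ratio, decoded by Illumina sequencing, PSI is the read-weighted mean bin number.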

On to YSQASELPTDAVDCMSRELVSLTS [FBXO34], for which the protein stability index turned out to be 4.03 ± 0.14 (treatment: DMSO) and 4.11 ± 0.11 (treatment: MLN4924 1 uM, 8 h).

As to YSSGEFSSGRKWGDDAPKEEVDTG [INTS4], the protein stability index was determined as 3.1 ± 0.48 (treatment: DMSO) and 3.97 ± 0.56 (treatment: MLN4924 1 uM, 8 h).

As for YSSQLSQVQSLITNVESQLAEIRC [KRT34], the protein stability index (treatment: DMSO) was 3.07 ± 0.21 and the protein stability index (treatment: MLN4924 1 uM, 8 h) worked out at 3.24 ± 0.24.

As to YSSSKGSLRLCDMRAAALCDKHSK [PPP2R2C], the protein stability index was 2.53 ± 0.8 (treatment: DMSO) and 3.11 ± 0.71 (treatment: MLN4924 1 uM, 8 h).

For YVKFDAVSGDYYPIIYFNDYWNLQ [CLPTM1], the protein stability index by setting is: (treatment: DMSO) 2.78 ± 0.5; (treatment: MLN4924 1 uM, 8 h) 2.8 ± 0.64.

As for YVVLAYTLPPASRFIIIFEQIRFV [SOAT1], the protein stability index was 3.27 ± 0.48 (treatment: DMSO) and 2.93 ± 0.53 (treatment: MLN4924 1 uM, 8 h).

Take YYPSGDAFASGSDDATCRLYDLRA [GNB5]: the protein stability index runs as follows: (treatment: DMSO) 2.94 ± 0.33; (treatment: MLN4924 1 uM, 8 h) 3.38 ± 0.34.

For the sequence YYSDKYDDEEFEYRHVMLPKDIAK [CKS1B], the protein stability index is 3.81 ± 0.12 (treatment: DMSO) and 3.91 ± 0.14 (treatment: MLN4924 1 uM, 8 h).
